From the RNAGym collection of RNA variant scans (doi:10.7554/elife.80360)

B1: Hammerhead Ribozyme (parent)
chain: ACCGGAUGUGCUUUCCGGUCUGAUGAGUCCGUGAGGACGAAACAG

Variants of: B1
Assay: self-cleavage, relative activity (ratio to wild type); higher = more cleavage; co-transcriptional

| Variant | self-cleavage |
| --- | --- |
| A23U G35A | 0.471 |
| A23U G35C | 0.356 |
| A23U G35U | 0.37 |
| A23U G36A | 0.375 |
| A23U G36C | 0.327 |
| A23U G36U | 0.314 |
| A23U G39A | 0.331 |
| A23U G39C | 0.341 |
| A23U G39U | 0.315 |
| A23U G45A | 0.336 |
| A23U G45C | 0.42 |
| A23U G45U | 0.461 |
| A23U U24A | 0.58 |
| A23U U24C | 0.45 |
| A23U U24G | 0.251 |
| A23U U28A | 0.375 |
| A23U U28C | 0.356 |
| A23U U28G | 0.36 |
| A23U U32A | 0.376 |
| A23U U32C | 0.311 |
| A23U U32G | 0.41 |
| U24A | 1.03 |
| U24A A26C | 0.602 |
| U24A A26G | 0.332 |

| Variant | self-cleavage |
| --- | --- |
| U24A A26U | 0.756 |
| U24A A34C | 0.88 |
| U24A A34G | 0.777 |
| U24A A34U | 0.849 |
| U24A A37C | 1.03 |
| U24A A37G | 1.09 |
| U24A A37U | 0.771 |
| U24A A40C | 0.421 |
| U24A A40G | 0.337 |
| U24A A40U | 0.359 |
| U24A A41C | 0.371 |
| U24A A41G | 0.473 |
| U24A A41U | 0.279 |
| U24A A42C | 0.363 |
| U24A A42G | 0.24 |
| U24A A42U | 0.354 |
| U24A A44C | 0.46 |
| U24A A44G | 1.68 |
| U24A A44U | 0.712 |
| U24A C29A | 0.786 |
| U24A C29G | 0.79 |
| U24A C29U | 0.883 |
| U24A C30A | 0.928 |
| U24A C30G | 1.04 |

| Variant | self-cleavage |
| --- | --- |
| U24A C30U | 0.785 |
| U24A C38A | 0.696 |
| U24A C38G | 0.645 |
| U24A C38U | 0.993 |
| U24A C43A | 0.341 |
| U24A C43G | 0.374 |
| U24A C43U | 0.518 |
| U24A G25A | 0.243 |
| U24A G25C | 0.366 |
| U24A G25U | 0.282 |
| U24A G27A | 0.7 |
| U24A G27C | 0.685 |
| U24A G27U | 0.508 |
| U24A G31A | 1.15 |
| U24A G31C | 0.814 |
| U24A G31U | 0.927 |
| U24A G33A | 1 |
| U24A G33C | 1.21 |
| U24A G33U | 0.78 |
| U24A G35A | 0.873 |
| U24A G35C | 0.851 |
| U24A G35U | 0.791 |
| U24A G36A | 0.669 |
| U24A G36C | 0.362 |

| Variant | self-cleavage |
| --- | --- |
| U24A G36U | 0.618 |
| U24A G39A | 0.382 |
| U24A G39C | 0.496 |
| U24A G39U | 0.464 |
| U24A G45A | 0.75 |
| U24A G45C | 0.639 |
| U24A G45U | 0.832 |
| U24A U28A | 0.729 |
| U24A U28C | 1.27 |
| U24A U28G | 0.694 |
| U24A U32A | 0.859 |
| U24A U32C | 0.569 |
| U24A U32G | 0.644 |
| U24C | 0.959 |
| U24C A26C | 0.609 |
| U24C A26G | 0.401 |
| U24C A26U | 0.559 |
| U24C A34C | 0.746 |
| U24C A34G | 0.901 |
| U24C A34U | 0.824 |
| U24C A37C | 1.02 |
| U24C A37G | 0.9 |
| U24C A37U | 0.768 |
| U24C A40C | 0.47 |

| Variant | self-cleavage |
| --- | --- |
| U24C A40G | 0.27 |
| U24C A40U | 0.281 |
| U24C A41C | 0.305 |
| U24C A41G | 0.358 |
| U24C A41U | 0.408 |
| U24C A42C | 0.316 |
| U24C A42G | 0.228 |
| U24C A42U | 0.286 |
| U24C A44C | 0.503 |
| U24C A44G | 1.18 |
| U24C A44U | 0.542 |
| U24C C29A | 0.416 |
| U24C C29G | 0.605 |
| U24C C29U | 1.05 |
| U24C C30A | 0.904 |
| U24C C30G | 0.613 |
| U24C C30U | 1.14 |
| U24C C38A | 0.676 |
| U24C C38G | 0.601 |
| U24C C38U | 0.901 |
| U24C C43A | 0.271 |
| U24C C43G | 0.36 |
| U24C C43U | 0.404 |
| U24C G25A | 0.363 |

| Variant | self-cleavage |
| --- | --- |
| U24C G25C | 0.324 |
| U24C G25U | 0.305 |
| U24C G27A | 0.53 |
| U24C G27C | 0.559 |
| U24C G27U | 0.335 |
| U24C G31A | 0.924 |
| U24C G31C | 1.02 |
| U24C G31U | 0.982 |
| U24C G33A | 1.36 |
| U24C G33C | 1.15 |
| U24C G33U | 0.854 |
| U24C G35A | 0.702 |
| U24C G35C | 0.461 |
| U24C G35U | 0.655 |
| U24C G36A | 0.56 |
| U24C G36C | 0.383 |
| U24C G36U | 0.541 |
| U24C G39A | 0.337 |
| U24C G39C | 0.352 |
| U24C G39U | 0.333 |
| U24C G45A | 0.465 |
| U24C G45C | 0.641 |
| U24C G45U | 0.669 |
| U24C U28A | 0.614 |

| Variant | self-cleavage |
| --- | --- |
| U24C U28C | 1.06 |
| U24C U28G | 0.99 |
| U24C U32A | 1.18 |
| U24C U32C | 1.2 |
| U24C U32G | 0.802 |
| U24G | 1.03 |
| U24G A26C | 0.373 |
| U24G A26G | 0.304 |
| U24G A26U | 0.718 |
| U24G A34C | 0.823 |
| U24G A34G | 0.902 |
| U24G A34U | 0.679 |
| U24G A37C | 1.05 |
| U24G A37G | 0.659 |
| U24G A37U | 0.854 |
| U24G A40C | 0.421 |
| U24G A40G | 0.392 |
| U24G A40U | 0.308 |
| U24G A41C | 0.322 |
| U24G A41G | 0.308 |
| U24G A41U | 0.323 |
| U24G A42C | 0.343 |
| U24G A42G | 0.346 |
